The record followed here is the supplement of paper PMC9170038.

This series has as its system MS2 coat protein. The series can be described thus: apparent KD of MS2 coat protein; higher = weaker reporter binding. The following applies: Eterna round: R107. In a few lines: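 Each design's apparent KD comes from the median of binding-curve fits to its normalised clusters. Those clusters carried RNA switches transcribed on-chip from Illumina sequencing clusters. SNAP-549-labelled MS2 coat protein was titrated onto them in twofold steps (0.7 or 1.5 nM to 3 µM; per step 0.8–1.5 h down to 10–20 min). Conditions were 100 mM Tris-HCl pH 7.5, 80 mM KCl, 4 mM MgCl2, without or with constant ligand.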

Setting [1] is: input ligand: theophylline 20 uM.
Where [2] appears, read: input ligand: theophylline 2 mM.
Where [3] appears, read: input ligand: tryptophan 2.4 mM.

On to “AACUACUCGAGGUGAUCCUACGAGUGGCAACGAGGACCGGUACGGCCGCCACUCGAAUAAACAUGAGGAUCACCCAUGUACAAAU [T''-M'-T'-T-MS2 - Design 12]”, for which the “apparent KD of MS2 coat protein” value turned out to be 92.2 nM (input ligand: arginine 13.2 mM), 259 nM under setting [1] and 220 nM under setting [2].

Regarding “UUCACAUGGUAUGAAUAUACAUAUAAGAAACGAGGACCGGUACGGCCGCCACUCGUGCCGGAAACAUGAGGAUCACCCAUGUGUU [AK1.1 Exclusion TrypA mod IceBolt]”, the “apparent KD of MS2 coat protein” value is 27 nM (input ligand: arginine 13.2 mM), 55.9 nM under setting [1] and 64.8 nM under setting [2].

With “CCUCAAUAGACGGCCGCCACUGAAACAUGCGGAUACAUGAGGAUCACCCAUGUGGGUGUGUUACGCAGGACCGGGUCAAGACCCG [#12 Same State - Tryptophan B]”, the “apparent KD of MS2 coat protein” value turned out to be 115 nM (input ligand: arginine 13.2 mM), 316 nM under setting [1] and 583 nM under setting [2].

Consider “UGGAAAGCACAUGAGGAUCACCCAUGUGAUACCAGCUGAAACUAAGGCCCUUGGCAGCACAUGGUACCAACCCUUUGGUAGUCCA [Vearedqu]”, for which the “apparent KD of MS2 coat protein” value (input ligand: arginine 13.2 mM) was found to be 10.9 nM, the “apparent KD of MS2 coat protein” value under setting [1] came to 19.9 nM and the “apparent KD of MS2 coat protein” value under setting [3] was 10.3 nM.

Consider “UCUUGGUCCGCAAGGACCUUGAGUUGCGAUACCAGCACGGUAACGUGCCCUUGGCAGCGCACAUGAGGAUCACCCAUGUGGUGUU [#1 Exclusion - Theophylline A Attempt #16 (HarryS)]”, for which the “apparent KD of MS2 coat protein” value by setting is: (input ligand: arginine 13.2 mM) 82.3 nM; under setting [1], 348 nM; under setting [3], 170 nM.

Consider “GGACUAACCAGAAGGAGCGGCACAAGCAGAAACUGCAAUCCUCCGCACGAGGAUCACCCGUGUCAGGUAGGUCGCUGGUUAGUCG [ArgBX 28]”, for which the “apparent KD of MS2 coat protein” value (input ligand: arginine 13.2 mM) was found to be 49.2 nM; the “apparent KD of MS2 coat protein” value (input ligand: none) is 56.8 nM; the “apparent KD of MS2 coat protein” value under setting [1] turned out to be 74.6 nM; the “apparent KD of MS2 coat protein” value under setting [2] was found to be 80.4 nM; the “apparent KD of MS2 coat protein” value under setting [3] amounted to 63.7 nM.

Regarding “GAGUAGAGGACGGCCGCCACUGAACAUGAGGAUCACCCAUGUCGUGAUCCGUUACCUAAAGAAGAUAGGACCGGGUCAUGUACUC [Exclusion Tryptophan B GF 19]”, the “apparent KD of MS2 coat protein” value (input ligand: arginine 13.2 mM) amounted to 28.9 nM, the “apparent KD of MS2 coat protein” value under setting [1] was 41.7 nM and the “apparent KD of MS2 coat protein” value under setting [2] stood at 32.7 nM.

For the sequence “GCGCGGCGAGUGCGGCGUGUUCCGCUCCGUCGAGGACCGGUACGGCCGCCACUCGACAUGAGGAUCACCCAUGUCGCCGCGCGCG [Exclusion - Tryptophan A Attempt #3]”, the “apparent KD of MS2 coat protein” value runs as follows: (input ligand: arginine 13.2 mM) 13.9 nM; (input ligand: none) 13.3 nM; under setting [1], 22.9 nM; under setting [2], 48.3 nM; under setting [3], 13.5 nM.

“UGGUACAUGAGGAUCACCCAUGUUCCAGAUACCAGACUCCCGGUGGUCCCUUGGCAGCUGGUGGUACAUGAGGAUCACCCAUGUG [Exclusion Theophylline A GF17]”: the “apparent KD of MS2 coat protein” value (input ligand: arginine 13.2 mM) was 28.5 nM, the “apparent KD of MS2 coat protein” value under setting [1] came to 44.7 nM and the “apparent KD of MS2 coat protein” value under setting [3] was determined as 30.8 nM.

Consider “AUUAAUUGUCGUGAUACCAGACAUACAUGAGGAUCACCCAUGUUAAGUAACAUUUUUUAUGUCCCUUGGCAGCACUUUUUAAUUA [JR_Nu_SSTheophyB_Sub017]”, for which the “apparent KD of MS2 coat protein” value runs as follows: (input ligand: arginine 13.2 mM) 22 nM; under setting [1], 24.8 nM; under setting [3], 19.7 nM.

On to “UUAUAUACUACGGCCGCCACUGAACAUGAGGAUCACCCAUGUAAUGUUCAGACGUCUUUAGACGACAGGACCGGGUAGAAUUAAA [Tryptophan B 1]”, for which the “apparent KD of MS2 coat protein” value (input ligand: arginine 13.2 mM) was 79.5 nM, the “apparent KD of MS2 coat protein” value under setting [1] amounted to 114 nM and the “apparent KD of MS2 coat protein” value under setting [2] amounted to 122 nM.

Consider “AUGACUCACAAAGAAGAUAAAAUGGGUGAACGAGGACCGGUACGGCCGCCACUCGGACAUGAGGAUCACCCAUGUCCAUGUGCAA [#24 Exclusion Tryptophan A]”, for which the “apparent KD of MS2 coat protein” value reads like this: (input ligand: arginine 13.2 mM) 16 nM; under setting [1], 24.3 nM; under setting [2], 21 nM.

As for “CGUAUUGUAACUGAUACCAGUGUACUGACAUGAGGAUCACCCAUGUUGGGUUUUGUUGUACACCCUUGGCAGCAGAAUCAAUACG [AstrosExyTheB#5]”, the “apparent KD of MS2 coat protein” value is 59.4 nM (input ligand: arginine 13.2 mM), 74.2 nM under setting [1] and 65.8 nM under setting [3].

Turning to “ACAUGAGGAUCACCCAUGUAAUCAUCAGAAGGAGCGUGGAAUAACACAGGUAGGUCGCUGAUGUUAUAUUAAUCUUAUUCGUAAA [JR_ExcArginiA_Sub003]”, the “apparent KD of MS2 coat protein” value (input ligand: arginine 13.2 mM) was 22 nM; the “apparent KD of MS2 coat protein” value (input ligand: none) turned out to be 13.6 nM; the “apparent KD of MS2 coat protein” value under setting [1] came to 18.7 nM; the “apparent KD of MS2 coat protein” value under setting [2] was 13.2 nM; the “apparent KD of MS2 coat protein” value under setting [3] amounted to 14.2 nM.

As for “UGAGAUCCUCAUGAUACCAGUGUACUACAUGAGGAUCACCCAUGUAGCAACAUCUGUAGACACCCUUGGCAGCAUGAGACCACGU [Theo B SS t5]”, the “apparent KD of MS2 coat protein” value by setting is: (input ligand: arginine 13.2 mM) 17.5 nM; under setting [1], 35.2 nM; under setting [3], 15.6 nM.

In the case of “AGUCUUAAUGGAAGGAGCGCAGUCAUAACAUGAGGAUCACCCAUGUCGAUGUGAGGGUCAUUGCAGGUAGGUCGCCAUACUAAGA [Same State - Arginine B (Freestyle 4)]”, the “apparent KD of MS2 coat protein” value by setting is: (input ligand: arginine 13.2 mM) 24.7 nM; (input ligand: none) 31 nM; under setting [1], 25 nM; under setting [2], 25.3 nM; under setting [3], 32.6 nM.

Turning to “UAGACGGCCGGAAGGAGCGGUACAUGAGGAUCACCCAUGUACUUCUGGGCAUCCGUAGUGUGCCAGGUAGGUCGCCGGUUGCGGG [XArg-B20]”, the “apparent KD of MS2 coat protein” value reads like this: (input ligand: arginine 13.2 mM) 45.9 nM; (input ligand: none) 14.4 nM; under setting [1], 32.4 nM; under setting [2], 33.1 nM; under setting [3], 19.9 nM.

With “CUAUAUGGAAACAUAUAGAAGCGAAAGCAGCGAGGACCGGUACGGCCGCCACUCGCAGAGUGGUGGACAUGAGGAUCACCCAUGU [Design 2]”, the “apparent KD of MS2 coat protein” value turned out to be 43.8 nM (input ligand: arginine 13.2 mM); 83.2 nM (input ligand: none); 111 nM under setting [1]; 74.6 nM under setting [2]; 40 nM under setting [3].
